The values below come from patent US20250011363A1, “OPTIMIZED SHORTENED PEPTIDE THAT BINDS TO ACETYLCHOLINE RECEPTOR, AND USE THEREOF” (SKINMED CO., LTD., priority 2021, published 2025).

The experiment concerns the target acetylcholine receptor. As to the kind of experiment: SPR, AchR on chip, peptide 10 uM.

Consider RQQLK [5mer-22], for which the Binding affinity (RU) was 66 RU.
In turn, RWQQK [5mer-6] yielded a Binding affinity (RU) of 61 RU.
For KWLCK [5mer-548], the Binding affinity (RU) amounted to 60 RU.
The molecule RGYTK [5mer-242] registered a Binding affinity (RU) of 64 RU.
As for RSQLK [5mer-313], the Binding affinity (RU) amounted to 75 RU.
With RLRLK [5mer-543], the Binding affinity (RU) is 65 RU.
Regarding RRVQR [5mer-317], the Binding affinity (RU) was found to be 86 RU.
Take RWYTR [5mer-314]: the Binding affinity (RU) is 80 RU.
For KLYTK [5mer-16], the Binding affinity (RU) is 66 RU.
The value for RVQRR [5mer-10] was 55 RU; that for KGVCK [5mer-15] was 75 RU.
Turning to KRYTR [5mer-542], the Binding affinity (RU) is 85 RU.
Next, RLQLR [5mer-544]: 63 RU.
For the molecule KSFTR [5mer-246], the Binding affinity (RU) came out at 60 RU.
KQVTK [5mer-547]: the Binding affinity (RU) stood at 77 RU.
The molecule KRVCK [5mer-318] registered a Binding affinity (RU) of 64 RU.
For the molecule KQRLR [5mer-11], the Binding affinity (RU) worked out at 84 RU.
In turn, KLFLR [5mer-5] registered a Binding affinity (RU) of 54 RU.
Molecule KGQYR [5mer-545] registered a Binding affinity (RU) of 80 RU.
In turn, RQLRR [5mer-18] displayed a Binding affinity (RU) of 69 RU.
Take KRVLK [5mer-3]: the Binding affinity (RU) was found to be 66 RU.
Molecule KVQYR [5mer-309] showed a Binding affinity (RU) of 70 RU.
KRIYK [5mer-17] registered a Binding affinity (RU) of 70 RU.
In the case of KGRYR [5mer-303], the Binding affinity (RU) turned out to be 87 RU.
As for RGVQR [5mer-9], the Binding affinity (RU) stood at 77 RU.
Next, RWYLK [5mer-248]: 63 RU; RVQTR [5mer-319]: 74 RU; KLFSR [5mer-315]: 77 RU.
Take KSRQR [5mer-310]: the Binding affinity (RU) is 78 RU.
Consider KSVSK [5mer-244], for which the Binding affinity (RU) is 78 RU.
With KRICK [5mer-305], the Binding affinity (RU) amounted to 72 RU.
Molecule KQRCK [5mer-307] yielded a Binding affinity (RU) of 82 RU.
In turn, RWYCR [5mer-247] showed a Binding affinity (RU) of 80 RU.
In the case of KRFLR [5mer-4], the Binding affinity (RU) was found to be 58 RU.
In turn, RVVQR [5mer-320] displayed a Binding affinity (RU) of 75 RU.
Molecule KRFQR [5mer-19] gave a Binding affinity (RU) of 72 RU.
For the molecule RSVRK [5mer-304], the Binding affinity (RU) came out at 76 RU.
Take RGRYK [5mer-20]: the Binding affinity (RU) stood at 78 RU.
The value for KRYCR [5mer-312] was 81 RU; that for RSLSR [5mer-321] was 68 RU; that for KLLSK [5mer-243] was 51 RU.
With KWFTR [5mer-21], the Binding affinity (RU) turned out to be 63 RU.
The molecule RWLCK [5mer-14] displayed a Binding affinity (RU) of 63 RU.
The molecule RLISK [5mer-13] displayed a Binding affinity (RU) of 52 RU.
Regarding RQRSR [5mer-8], the Binding affinity (RU) came out at 51 RU.
In turn, KQYLR [5mer-316] yielded a Binding affinity (RU) of 73 RU.
For the molecule KSYYR [5mer-306], the Binding affinity (RU) came out at 74 RU.
KVVLK [5mer-546]: the Binding affinity (RU) worked out at 65 RU.
Take RQLTK [5mer-7]: the Binding affinity (RU) stood at 54 RU.
The value for RQRSK [5mer-245] was 62 RU.
In turn, RVFLR [5mer-12] came in with a Binding affinity (RU) of 70 RU.
In the case of RLRCR [5mer-308], the Binding affinity (RU) is 84 RU.
